{"source": "paper PMC6993976", "about": "“Insulin BBB pharmacokinetics in young apoE male and female transgenic mice” (PLoS ONE, 2020)", "key": {"[1]": {"test_system": "blood-brain barrier (BBB)", "conditions": "in vivo; cited from earlier work", "excerpt": "Our studies are designed to investigate the transfer of human ^125I-insulin from the periphery to the CNS. Rat and human insulin are transported across the BBB at similar rates and are both saturable by excess respective peptide. […] We used the well-described multiple-time regression analysis technique first described by Patlak, Blasberg, and Fenstermacher. This an ..."}, "[2]": {"set-up": "species or system mouse (human E3- and E4-targeted replacement mice)", "conditions": "in vivo", "protocol": "Mice were anesthetized with an intraperitoneal injection of 0.1 mL 40% urethane to minimize pain and distress. […] We correct for the exact amount of radioactivity injected based on serum levels. […] Blood from the left carotid artery was collected between 0.5–10 min after intravenous injection. Mice were immediately decapitated and their whole brains quickly removed and weighed. The arterial blood was centrifuged at 5400g for 10 min at 4°C and serum collected. The brains were dissected into regions according to the method of [27] and weighed. The levels of radioactivity in serum (50 μL) and brain regions were counted in a gamma counter (Wizard2, Perkin Elmer, Waltham, MA). […] Expt was calculated from the formula: Exposuretime=∫0tCp(t)dt/Cp(t) (1) where Cp is the level of radioactivity (cpm) in serum at time (t). Expt corrects for the clearance of peptide from the blood. […] The influx of insulin was calculated by multiple-time regression analysis as described by Patlak, Blasberg, and Fenstermacher: Am/Cpt=Ki(∫0tCp(t)dt/Cp(t))+Vi (2) where Am is level of radioactivity (cpm) per g of brain tissue at time t, Cpt is the level of radioactivity (cpm) per mL arterial serum at time t, Ki (μL/g-min) is the unidirectional solute influx from blood to brain, and Vi (μL/g) is the level of rapid and reversible binding for the brain vasculature. […]"}, "[3]": {"test_system": "blood-brain barrier (BBB)", "set-up": "method as in PMID 30044494", "conditions": "in vivo; cited from earlier work"}, "[4]": {"test_system": "blood-brain barrier (BBB)", "test": "BBB pharmacokinetic transport of 125I-insulin, multiple-time regression analysis (Ki, Vi)", "format": "in vivo, mouse (human E3- and E4-targeted replacement mice)", "conditions": "for Insulin transport rate Ki / Reversible vascular binding (Vi): n = 7-10 mice/group; for Ki (unidirectional influx from blood to brain) / Vi (reversible vascular binding): whole brain; for Ki (unidirectional influx from blood to brain): multiple-time regression, ± SE", "protocol": "Mice were anesthetized with an intraperitoneal injection of 0.1 mL 40% urethane to minimize pain and distress. […] We correct for the exact amount of radioactivity injected based on serum levels. […] Blood from the left carotid artery was collected between 0.5–10 min after intravenous injection. Mice were immediately decapitated and their whole brains quickly removed and weighed. The arterial blood was centrifuged at 5400g for 10 min at 4°C and serum collected. The brains were dissected into regions according to the method of [27] and weighed. The levels of radioactivity in serum (50 μL) and brain regions were counted in a gamma counter (Wizard2, Perkin Elmer, Waltham, MA). […] Expt was calculated from the formula: Exposuretime=∫0tCp(t)dt/Cp(t) (1) where Cp is the level of radioactivity (cpm) in serum at time (t). Expt corrects for the clearance of peptide from the blood. […] The influx of insulin was calculated by multiple-time regression analysis as described by Patlak, Blasberg, and Fenstermacher: Am/Cpt=Ki(∫0tCp(t)dt/Cp(t))+Vi (2) where Am is level of radioactivity (cpm) per g of brain tissue at time t, Cpt is the level of radioactivity (cpm) per mL arterial serum at time t, Ki (μL/g-min) is the unidirectional solute influx from blood to brain, and Vi (μL/g) is the level of rapid and reversible binding for the brain vasculature. The brain/serum (B/S) ratios for insulin were corrected for vascular space by subtracting the corresponding ratio for albumin, yielding a delta B/S ratio. The linear portion of the relation between the delta B/S ratio versus Expt was used to calculate the Ki (μL/g-min) with its standard error term, and the y-intercept determined as representation of the Vi (μL/g) for each brain region. For whole brain, the weights and cpm of all individual brain regions except for the olfactory bulb were summed to calculate the B/S ratio. […] All anesthetized mice were killed by decapitation at the end of the study.\nRegression analysis and other statistical analyses were performed with the use of Prism 8.0 (GraphPad Software Inc., San Diego, CA, USA). Brain weight means are reported with their standard error terms and compared by two-way analysis of variance (ANOVA) followed by Sidak’s post hoc test to determine differences due to genotype or sex. […] For pharmacokinetic studies (multiple-time regression analysis), the slope of the linear regression lines (Ki), reported with their correlation coefficients (r), and y-intercepts (Vi) were compared statistically with the Prism 8.0 software package, as described."}}, "data": [{"substance": "125I-insulin: Human insulin (Sigma-Aldrich) radioactively labeled with Na125I by the chloramine-T method", "values": [{"measurement": "Whole brain transport rate, average previously observed", "setting": "[1]", "result": "0.71 ± 0.17", "unit": "µL/g/min"}, {"measurement": "Serum clearance rate, slower in males compared to females", "setting": "[2]", "result": "> 2", "unit": "fold"}, {"measurement": "Distribution between brain capillary and brain parenchyma", "setting": "[3]", "result": "enters the brain parenchyma"}, {"measurement": "Insulin transport rate Ki", "setting": "[4]; E3 Female, Cerebellum", "result": 1.189, "unit": "µL/g/min"}, {"measurement": "Reversible vascular binding (Vi)", "setting": "[4]; E3 Female, Cerebellum", "result": 8.36, "unit": "µL/g"}, {"measurement": "Insulin transport rate Ki", "setting": "[4]; E3 Female, Frontal Cortex", "result": 0.796, "unit": "µL/g/min"}, {"measurement": "Reversible vascular binding (Vi)", "setting": "[4]; E3 Female, Frontal Cortex", "result": 4.65, "unit": "µL/g"}, {"measurement": "Insulin transport rate Ki", "setting": "[4]; E3 Female, Hippocampus, ns = non-significant transport", "result": "ns"}, {"measurement": "Insulin transport rate Ki", "setting": "[4]; E3 Female, Hypothalamus", "result": 1.541, "unit": "µL/g/min"}, {"measurement": "Reversible vascular binding (Vi)", "setting": "[4]; E3 Male, Parietal Cortex", "result": 4.17, "unit": "µL/g"}, {"measurement": "Insulin transport rate Ki", "setting": "[4]; E3 Male, Pons/Medulla", "result": 0.739, "unit": "µL/g/min"}, {"measurement": "Insulin transport rate Ki", "setting": "[4]; E3 Male, Striatum, ns = non-significant transport", "result": "ns"}, {"measurement": "Insulin transport rate Ki", "setting": "[4]; E3 Male, Thalamus, ns = non-significant transport", "result": "ns"}, {"measurement": "Insulin transport rate Ki", "setting": "[4]; E4 Female, Cerebellum", "result": 2.110, "unit": "µL/g/min"}, {"measurement": "Reversible vascular binding (Vi)", "setting": "[4]; E4 Female, Cerebellum", "result": 8.91, "unit": "µL/g"}, {"measurement": "Insulin transport rate Ki", "setting": "[4]; E4 Female, Frontal Cortex", "result": 0.720, "unit": "µL/g/min"}, {"measurement": "Reversible vascular binding (Vi)", "setting": "[4]; E4 Female, Olfactory Bulb", "result": 11.71, "unit": "µL/g"}, {"measurement": "Insulin transport rate Ki", "setting": "[4]; E4 Female, Parietal Cortex", "result": 0.859, "unit": "µL/g/min"}, {"measurement": "Reversible vascular binding (Vi)", "setting": "[4]; E4 Female, Parietal Cortex", "result": 3.31, "unit": "µL/g"}, {"measurement": "Insulin transport rate Ki", "setting": "[4]; E4 Female, Pons/Medulla", "result": 1.111, "unit": "µL/g/min"}, {"measurement": "Insulin transport rate Ki", "setting": "[4]; E4 Female, Striatum, ns = non-significant transport", "result": "ns"}, {"measurement": "Insulin transport rate Ki", "setting": "[4]; E4 Female, Thalamus", "result": 0.634, "unit": "µL/g/min"}, {"measurement": "Insulin transport rate Ki", "setting": "[4]; E4 Male, Cerebellum, ns = non-significant transport", "result": "ns"}, {"measurement": "Insulin transport rate Ki", "setting": "[4]; E4 Male, Frontal Cortex", "result": 1.023, "unit": "µL/g/min"}, {"measurement": "Reversible vascular binding (Vi)", "setting": "[4]; E4 Male, Frontal Cortex", "result": 5.90, "unit": "µL/g"}, {"measurement": "Insulin transport rate Ki", "setting": "[4]; E4 Male, Hippocampus, ns = non-significant transport", "result": "ns"}, {"measurement": "Insulin transport rate Ki", "setting": "[4]; E4 Male, Hypothalamus", "result": 2.272, "unit": "µL/g/min"}, {"measurement": "Reversible vascular binding (Vi)", "setting": "[4]; E4 Male, Hypothalamus", "result": 5.63, "unit": "µL/g"}, {"measurement": "Insulin transport rate Ki", "setting": "[4]; E4 Male, Midbrain", "result": 0.887, "unit": "µL/g/min"}, {"measurement": "Reversible vascular binding (Vi)", "setting": "[4]; E4 Male, Midbrain", "result": 6.38, "unit": "µL/g"}, {"measurement": "Insulin transport rate Ki", "setting": "[4]; E4 Male, Occipital Cortex", "result": 0.793, "unit": "µL/g/min"}, {"measurement": "Reversible vascular binding (Vi)", "setting": "[4]; E4 Male, Occipital Cortex", "result": 6.71, "unit": "µL/g"}, {"measurement": "Insulin transport rate Ki", "setting": "[4]; E4 Male, Olfactory Bulb", "result": 1.712, "unit": "µL/g/min"}, {"measurement": "Reversible vascular binding (Vi)", "setting": "[4]; E4 Male, Olfactory Bulb", "result": 13.31, "unit": "µL/g"}, {"measurement": "Insulin transport rate Ki", "setting": "[4]; E4 Male, Parietal Cortex", "result": 0.920, "unit": "µL/g/min"}, {"measurement": "Reversible vascular binding (Vi)", "setting": "[4]; E4 Male, Parietal Cortex", "result": 4.74, "unit": "µL/g"}, {"measurement": "Insulin transport rate Ki", "setting": "[4]; E4 Male, Pons/Medulla, ns = non-significant transport", "result": "ns"}, {"measurement": "Insulin transport rate Ki", "setting": "[4]; E4 Male, Striatum, ns = non-significant transport", "result": "ns"}, {"measurement": "Insulin transport rate Ki", "setting": "[4]; E4 Male, Thalamus", "result": 1.203, "unit": "µL/g/min"}, {"measurement": "Reversible vascular binding (Vi)", "setting": "[4]; E4 Male, Thalamus", "result": 4.56, "unit": "µL/g"}, {"measurement": "Ki (unidirectional influx from blood to brain)", "setting": "[4]; Female E3, iv, albumin-corrected", "result": "1.128 ± 0.32", "unit": "µL/g/min"}, {"measurement": "Vi (reversible vascular binding)", "setting": "[4]; Female E3, y-intercept of multiple-time regression", "result": "4.41 ± 2.31", "unit": "µL/g"}, {"measurement": "Ki (unidirectional influx from blood to brain)", "setting": "[4]; Female E4", "result": "1.033 ± 0.28", "unit": "µL/g/min"}, {"measurement": "Vi (reversible vascular binding)", "setting": "[4]; Female E4, y-intercept of multiple-time regression", "result": "7.17 ± 2.07", "unit": "µL/g"}, {"measurement": "Vi (reversible vascular binding)", "setting": "[4]; Female, genotypes Combined", "result": "7.84 ± 1.26", "unit": "µL/g"}, {"measurement": "Ki (unidirectional influx from blood to brain)", "setting": "[4]; Female, genotypes Combined", "result": "0.691 ± 0.16", "unit": "µL/g/min"}, {"measurement": "Vi (reversible vascular binding)", "setting": "[4]; Male E3, y-intercept of multiple-time regression", "result": "7.17 ± 0.95", "unit": "µL/g"}, {"measurement": "Ki (unidirectional influx from blood to brain)", "setting": "[4]; Male E4", "result": "0.781 ± 0.32", "unit": "µL/g/min"}, {"measurement": "Vi (reversible vascular binding)", "setting": "[4]; Male E4, y-intercept of multiple-time regression", "result": "8.23 ± 2.13", "unit": "µL/g"}, {"measurement": "Vi (reversible vascular binding)", "setting": "[4]; Male, genotypes Combined", "result": "7.88 ± 1.09", "unit": "µL/g"}, {"measurement": "Ki (unidirectional influx from blood to brain)", "setting": "[4]; Male, genotypes Combined", "result": "0.803 ± 0.17", "unit": "µL/g/min"}]}]}
